From patent US20260116963A1 (GENERATE BIOMEDICINES, published 2026)

Experiments:
human IL-13 [1] = target: T1, human IL-13 (human, UniProt P35225 25-146, limits assumed); assay: SPR array (Carterra LSA), antibody captured on anti-human pAb HC30M chip, human IL-13 0.05-100 nM as analyte, 25 C, 1:1 fit
T1 construct: The KinExA antigen was detected with an anti-HIS IgG, so it probably carried a HIS tag; also called Interleukin-13; hIL-13

human IL-13 [2] = target: T1, human IL-13; assay: cell-based or functional assay
human IL-13 [3] = target: T1, human IL-13; assay: SPR (Biacore 8K+), antibody captured on anti-human pAb CM4 chip, human IL-13 0.6-10 nM as analyte, 37 C, 1:1 fit
human IL-13 [4] = target: T1, human IL-13; assay: SPR (Biacore 8K+), antibody captured, human IL-13 as analyte, 37 C; less than 5% decay in 5,400 s, KD estimated

T1 sequence (P35225 other isoform, or with tags, fused parts or gaps limits assumed): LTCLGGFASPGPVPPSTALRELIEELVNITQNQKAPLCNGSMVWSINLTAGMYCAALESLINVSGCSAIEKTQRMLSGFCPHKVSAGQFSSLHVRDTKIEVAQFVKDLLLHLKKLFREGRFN

Row | Binder | Kd (human IL-13 [1]) [nM] | koff (human IL-13 [1]) [s⁻¹] | kon (human IL-13 [1]) [M⁻¹ s⁻¹] | IC50, HEK-Blue IL-13Ra1/IL-4Ra STAT6-SEAP reporter assay (human IL-13 [2]) [µg/mL] | Kd (human IL-13 [3]) [nM] | koff (human IL-13 [3]) [s⁻¹] | kon (human IL-13 [3]) [M⁻¹ s⁻¹] | Kd (human IL-13 [4]) [nM]
1 | NB-13 (antibody, human IgG4 S228P, kappa) heavy: QVTLRESGPALVKPTQTLTLTCTVSGFSLSAYSVNWIRQPPGKALEWLAMIWGDGKIVYNSALKSRLTISKDTSKNQVVLTMTNMDPVDTATYYCAGDGYYPYAMDNWGQGSLVTVSSASTKGPSVFPLAPCSRSTSESTAALGCLVKDYFPEPVTVSWNSGALTSGVHTFPAVLQSSGLYSLSSVVTVPSSSLGTKTYTCNVDHKPSNTKVDKRVESKYGPPCPPCPAPEFLGGPSVFLFPPKPKDTLYITREPEVTCVVVDVSQEDPEVQFNWYVDGVEVHNAKTKPREEQFNSTYRVVSVLTVLHQDWLNGKEYKCKVSNKGLPSSIEKTISKAKGQPREPQVYTLPPSQEEMTKNQVSLTCLVKGFYPSDIAVEWESNGQPENNYKTTPPVLDSDGSFFLYSRLTVDKSRWQEGNVFSCSVMHEALHNHYTQKSLSLSLGK light: DIVMTQSPDSLSVSLGERATINCRASKSVDSYGNSFMHWYQQKPGQPPKLLIYLASNLESGVPDRFSGSGSGTDFTLTISSLQAEDVAVYYCQQNNEDPRTFGGGTKVEIKRTVAAPSVFIFPPSDEQLKSGTASVVCLLNNFYPREAKVQWKVDNALQSGNSQESVTEQDSKDSTYSLSSTLTLSKADYEKHKVYACEVTHQGLSSPVTKSFNRGEC | < 0.1 |  |  |  |  |  |  | 
2 | NB-10 (antibody, human IgG4 S228P, kappa, V domains shown) VH: QVTLRESGPALVKPTQTLTLTCTVSGASLSAYSVNWIRQPPGKALEWLAMIWGDGKIVYNSALKSRLTISKDTSKNQVVLTMTNMDPVDTATYYCAGDGYYPYAMDNWGQGSLVTVSS VL: DIVMTQSPDSLSVSLGERATINCRASKSVDYYGNSFMHWYQQKPGQPPKLLIYLASNLESGVPDRFSGSGSGTDFTLTISSLQAEDVAVYYCQQNNEDPLTFGGGTKVEIKR | 13.6 | 0.000805 | 62000 |  |  |  |  | 
3 | NB-4 (antibody, human IgG4 S228P, kappa, V domains shown) VH: QVTLRESGPALVKPTQTLTLTCTVSGASLSAYSVNWIRQPPGKALEWLAMIWGDGKIVYNSALKSRLTISKDTSKNQVVLTMTNMDPVDTATYYCAGDGYYPYAMDNWGQGSLVTVSS VL: DIVMTQSPDSLSVSLGERATINCRASKSVDSYGNSFMHWYQQKPGQPPKLLIYLASNLESGVPDRFSGSGSGTDFTLTISSLQAEDVAVYYCQQNNEDPLTFGGGTKVEIKR | 13.6 | 0.000987 | 74000 |  |  |  |  | 
4 | NB-7 (antibody, human IgG4 S228P, kappa, V domains shown) VH: QVTLRESGPALVKPTQTLTLTCTVSGFSLSAYSVNWIRQPPGKALEWLAMIWGDGKIVYNSALKSRLTISKDTSKNQVVLTMTNMDPVDTATYYCAGDGYYPYAMDNWGQGSLVTVSS VL: DIVMTQSPDSLSVSLGERATINCRASKSVDSYGNSFMHWYQQKPGQPPKLLIYLASNLESGVPDRFSGSGSGTDFTLTISSLQAEDVAVYYCQQNNEDPLTFGGGTKVEIKR | 8.35 | 0.000827 | 100000 |  |  |  |  | 
5 | NB-2 (antibody, human IgG4 S228P, kappa, V domains shown) VH: QVTLRESGPALVKPTQTLTLTCTVSGFSLSAYSVNWIRQPPGKALEWLAMIWGDGKIVYNSALKSRLTISKDTSKNQVVLTMTNMDPVDTATYYCAGLGYYPYAMDNWGQGSLVTVSS VL: DIVMTQSPDSLSVSLGERATINCRASKSVDSYGNSFMHWYQQKPGQPPKLLIYLASNLESGVPDRFSGSGSGTDFTLTISSLQAEDVAVYYCQQNNEDPRTFGGGTKVEIKR | 6.67 | 0.000618 | 93000 |  |  |  |  | 
6 | AbA (antibody, human IgG1, kappa, V domains shown) VH: QVTLRESGPALVKPTQTLTLTCTVSGFSLSAYSVNWIRQPPGKALEWLAMIWGDGKIVYNSALKSRLTISKDTSKNQVVLTMTNMDPVDTATYYCAGDGYYPYAMDNWGQGSLVTVSS VL: DIVMTQSPDSLSVSLGERATINCRASKSVDSYGRSYMHWYQQKPGQPPKLLIYLASNLESGVPDRFSGSGSGTDFTLTISSLQAEDVAVYYCQQNNEDPRTFGGGTKVEIKR |  |  |  | 0.123 | 0.0162 | 1.11e-05 | 847000 | 
7 | AbD (antibody, human IgG1, kappa, V domains shown) VH: QVTLRESGPALVKPTQTLTLTCTVSGSSLSAYSVNWIRQPPGKALEWLAMIWGDGKVVYNSALKSRLTISKDTSKNQVVLTMTNMDPVDTATYYCAGDGYFPYAMDNWGQGSLVTVSS VL: DIVMTQSPDSLSVSLGERATINCRASKSVDSYGNSYMHWYQQKPGQPPKLLIYLASNLESGVPDRFSGSGSGTDFTLTISSLQAEDVAVYYCQQNNEDPRTFGGGTKVEIKR |  |  |  | 0.161 |  |  |  | < 0.015
8 | AbC (antibody, human IgG1, kappa, V domains shown) VH: QVTLRESGPALVKPTQTLTLTCTVSGFSLSAYSVNWIRQPPGKALEWLAMIWGDGKIVYNSALKSRLTISKDTSKNQVVLTMTNMDPVDTATYYCAGDGYYPYAMDYWGQGSLVTVSS VL: DIVMTQSPDSLSVSLGERATINCRASKSVDYYGNSYMHWYQQKPGQPPKLLIYLASNLESGVPDRFSGSGSGTDFTLTISSLQAEDVAVYYCQQNNEDPRTFGGGTKVEIKR |  |  |  | 0.118 | 0.0273 | 2.98e-05 | 1.09e+06 | 
9 | AbB (antibody, human IgG1, kappa, V domains shown) VH: QVTLRESGPALVKPTQTLTLTCTVSGASLSAYSVNWIRQPPGKALEWLAMIWGDGKIVYNSALKSRLTISKDTSKNQVVLTMTNMDPVDTATYYCAGDGYYPYAMDNWGQGSLVTVSS VL: DIVMTQSPDSLSVSLGERATINCRASKSVDYYGHSYMHWYQQKPGQPPKLLIYLASNLESGVPDRFSGSGSGTDFTLTISSLQAEDVAVYYCQQNNEDPRTFGGGTKVEIKR |  |  |  | 0.132 | 0.0215 | 1.02e-05 | 552000 | 

Results, then the binder that gave them:

Row | Kd (human IL-13 [1]) [nM] | koff (human IL-13 [1]) [s⁻¹] | kon (human IL-13 [1]) [M⁻¹ s⁻¹] | IC50, HEK-Blue IL-13Ra1/IL-4Ra STAT6-SEAP reporter assay (human IL-13 [2]) [µg/mL] | Kd (human IL-13 [3]) [nM] | koff (human IL-13 [3]) [s⁻¹] | kon (human IL-13 [3]) [M⁻¹ s⁻¹] | Kd (human IL-13 [4]) [nM] | Binder
10 | 5.21 | 0.000601 | 117000 |  |  |  |  |  | NB-1 (antibody, human IgG4 S228P, kappa, V domains shown) VH: QVTLRESGPALVKPTQTLTLTCTVSGASLSAYSVNWIRQPPGKALEWLAMIWGDGKIVYNSALKSRLTISKDTSKNQVVLTMTNMDPVDTATYYCAGLGYYPYAMDLWGQGSLVTVSS VL: DIVMTQSPDSLSVSLGERATINCRASKSVDSYGNSFMHWYQQKPGQPPKLLIYLASNLESGVPDRFSGSGSGTDFTLTISSLQAEDVAVYYCQQNNEDPRTFGGGTKVEIKR
11 | 2.41 | 0.000734 | 305000 |  |  |  |  |  | NB-9 (antibody, human IgG4 S228P, kappa, V domains shown) VH: QVTLRESGPALVKPTQTLTLTCTVSGFSLSAYSVNWIRQPPGKALEWLAMIWGSGKIVYNSALKSRLTISKDTSKNQVVLTMTNMDPVDTATYYCAGDGYYPYAMDNWGQGSLVTVSS VL: DIVMTQSPDSLSVSLGERATINCRASKSVDSYGNSFMHWYQQKPGQPPKLLIYLASNLESGVPDRFSGSGSGTDFTLTISSLQAEDVAVYYCQQNNEDPRTFGGGTKVEIKR
12 | 3.34 | 0.000855 | 258000 |  |  |  |  |  | NB-6 (antibody, human IgG4 S228P, kappa, V domains shown) VH: QVTLRESGPALVKPTQTLTLTCTVSGASLSAYSVNWIRQPPGKALEWLAMISGDGKIVYNSALKSRLTISKDTSKNQVVLTMTNMDPVDTATYYCAGDGYYPYAMDNWGQGSLVTVSS VL: DIVMTQSPDSLSVSLGERATINCRASKSVDSYGNSFMHWYQQKPGQPPKLLIYLASNLESGVPDRFSGSGSGTDFTLTISSLQAEDVAVYYCQQNNEDPRTFGGGTKVEIKR
13 | 6.09 | 0.000711 | 117000 |  |  |  |  |  | NB-12 (antibody, human IgG4 S228P, kappa, V domains shown) VH: QVTLRESGPALVKPTQTLTLTCTVSGASLSAYSVNWIRQPPGKALEWLAMIWGDGKIVYNSALKSRLTISKDTSKNQVVLTMTNMDPVDTATYYCAGDGYYPWAMDNWGQGSLVTVSS VL: DIVMTQSPDSLSVSLGERATINCRASQSVDSYGNSFMHWYQQKPGQPPKLLIYLASNLESGVPDRFSGSGSGTDFTLTISSLQAEDVAVYYCQQNNEDPRTFGGGTKVEIKR
14 | 0.97 | 0.000135 | 139000 |  |  |  |  |  | NB-11 (antibody, human IgG4 S228P, kappa, V domains shown) VH: QVTLRESGPALVKPTQTLTLTCTVSGASLSAYSVNWIRQPPGKALEWLAMIWGDGTIVYNSALKSRLTISKDTSKNQVVLTMTNMDPVDTATYYCAGDGYFPYAMDNWGQGSLVTVSS VL: DIVMTQSPDSLSVSLGERATINCRASKSVDSYGHSFMHWYQQKPGQPPKLLIYLASNLESGVPDRFSGSGSGTDFTLTISSLQAEDVAVYYCQQNNEDPRTFGGGTKVEIKR
15 | 4.24 | 0.00127 | 303000 |  |  |  |  |  | NB-5 (antibody, human IgG4 S228P, kappa, V domains shown) VH: QVTLRESGPALVKPTQTLTLTCTVSGASLSAYSVNWIRQPPGKALEWLAMIWGSGKIVYNSALKSRLTISKDTSKNQVVLTMTNMDPVDTATYYCAGDGYYPYAMDNWGQGSLVTVSS VL: DIVMTQSPDSLSVSLGERATINCRASKSVDSYGNSFMHWYQQKPGQPPKLLIYLASNLESGVPDRFSGSGSGTDFTLTISSLQAEDVAVYYCQQNNEDPRTFGGGTKVEIKR
16 | 2.56 | 0.000674 | 259000 |  |  |  |  |  | NB-8 (antibody, human IgG4 S228P, kappa, V domains shown) VH: QVTLRESGPALVKPTQTLTLTCTVSGASLSAYSVNWIRQPPGKALEWLAMIWGDGKIVYNSALKSRLTISKDTSKNQVVLTMTNMDPVDTATYYCAGEGYYPYAMDYWGQGSLVTVSS VL: DIVMTQSPDSLSVSLGERATINCRASKSVDSYGNSFMHWYQQKPGQPPKLLIYLASNLESGVPDRFSGSGSGTDFTLTISSLQAEDVAVYYCQQNNEDPRTFGGGTKVEIKR
17 | 1.89 | 0.00047 | 290000 |  |  |  |  |  | NB-3 (antibody, human IgG4 S228P, kappa, V domains shown) VH: QVTLRESGPALVKPTQTLTLTCTVSGASLSSYSVNWIRQPPGKALEWLAMIWGDGKIVYNSALKSRLTISKDTSKNQVVLTMTNMDPVDTATYYCAGEGYYPYAMDVWGQGSLVTVSS VL: DIVMTQSPDSLSVSLGERATINCRASKSVDSYGNSYMHWYQQKPGQPPKLLIYLASNLESGVPDRFSGSGSGTDFTLTISSLQAEDVAVYYCQQNNEDPRTFGGGTKVEIKR
